# In patent US10428308B2, “Mesoderm and definitive endoderm cell populations” (Icahn School of Medicine at Mount Sinai, priority 2005, dated 2019):
# B1: activin: growth factor purchased from R&D systems; induces mesoderm and endoderm (protein, UniProt P08476 311-426, looked up)
# Inhibin beta A chain: GLECDGKVNICCKKQFFVSFKDIGWNDWIIAPSGYHANYCEGECPSHIAGTSGSSLSFHSTVINHYRMRGHSPFANLKSCCVPTKLRPMSMLYYDDGQNIIKKDIQNMIVEECGCS
# Tests used:
# [1] = system: EBs (HNF3β, Hex1 expression); assay: Antibody staining for HNF3β and Hex1 in activin-induced EBs; assay type: cell-based, mouse
# Experimental: To better estimate the proportion of endodermal progenitors in the activin-induced EBs, cells from cultures stimulated with 100 ng/ml activin were stained with antibodies against HNF3β and Hex1. EBs from un-induced cultures were used as controls (Activin-). A significant portion of the activin induced population (estimated at 50-60% of total) expressed both HNF3β and Hex1. None of the cells in the un-induced EBs expressed these proteins.
# To quantify the differential response of activin, cells stimulated with different concentrations of activin were adhered to coverslips and stained with the anti-HNF3β antibody. More than 50% of the entire EB population stimulated with 100 ng/ml of activin expressed HNF3β whereas only 10% of the cells stimulated with 3 ng/ml were positive.
# EBs = assay: Hematopoietic progenitor potential of activin-induced EBs; assay type: cell-based, mouse; conditions: day 7 activin-induced EBs, no serum
# Experimental: FIGS. 24A and 24B show the hematopoietic progenitor content of EBs differentiated in the presence of different concentrations of activin. A) Progenitor potential of day 7 EBs, Ep are primitive erythroid progenitors, mac/mix represent definitive hematopoietic progenitors. B) Progenitor potential of day 7 activin-induced EBs following 2.5 days of exposure to serum.
# For the generation of blast cell colonies (BL-CFC assay), EB-derived cells were plated at 0.5×-1.5×10^5 cells/ml in 1% methylcellulose supplemented with 10% FCS (Hyclone), vascular endothelial growth factor (VEGF; 5 ng/ml), c-kit ligand (KL; 1% conditioned medium), IL-6 (5 ng/ml) and 25% D4T endothelial cell conditioned medium (Kennedy et al. (1997) Nature 386:488-93). Transitional colonies were generated in the absence of VEGF. Colonies were scored following four days of culture. […] Primitive erythroid colonies were scored at day 5-6 of culture, whereas definitive erythroid (BFU-E), macrophage, and multilineage colonies were counted at 7-10 days of culture. […]
# To further evaluate the hematopoietic potential of these EBs, they were analyzed for progenitor potential.
molecule,measurement,setting,value
B1,cells positive for HNF3β,"[1]; activin 3 ng/ml, anti-HNF3β antibody",10%
same,entire EB population expressing HNF3β,"[1]; activin 100 ng/ml, anti-HNF3β antibody",More than 50%
same,portion of population expressing both HNF3β and Hex1,"[1]; activin 100 ng/ml, antibody staining, estimated",50-60 % of total
same,primitive (Ep) or definitive (mac/mix) hematopoietic progenitors,EBs,no appreciable numbers
